Assay results: US20250353921A1 (ASTRIA THERAPEUTICS, published 2025)
Positions count from the first letter of the chain named. Names and notes keep the numbering of the source. Values joined by “and” are separate entries in the source; they are usually repeats but may differ in a detail not shown here. Equal entries are not always repeated. Values belong to the binder of their own block, whether it stands above or below them.

Key:
human OX40-CRD-avi-his [1] = biological target: T1, human OX40-CRD-avi-his (human, UniProt P43489 29-170, limits assumed); assay: SPR Biacore T200, ratio of KD values
T1 construct: Only the CRD region of the ECD was used
T1 sequence: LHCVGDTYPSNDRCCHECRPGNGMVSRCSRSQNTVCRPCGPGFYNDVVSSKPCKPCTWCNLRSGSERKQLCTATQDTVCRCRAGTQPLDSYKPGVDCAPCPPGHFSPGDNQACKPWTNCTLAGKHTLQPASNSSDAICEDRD

cynomolgus OX40-ECD-his [2] = biological target: T2, cynomolgus OX40-ECD-his (cynomolgus); assay: SPR Biacore T200, ratio of KD values
T2 construct: extracellular domain; also called Cyno OX40

[3] = biological target: T3, human OX40 (TNFRSF4, CD134) on cells (human, UniProt P43489 29-277); assay: flow cytometry on OX40-expressing HPB-ALL cells; cells pre-incubated with cold MAB1, washed, then stained with a single dose of the competitor GBR 830-AF647
T3 construct: also called OX40 on HPB-ALL cells; Jurkat-NFκB-OX40 cells
T3 sequence: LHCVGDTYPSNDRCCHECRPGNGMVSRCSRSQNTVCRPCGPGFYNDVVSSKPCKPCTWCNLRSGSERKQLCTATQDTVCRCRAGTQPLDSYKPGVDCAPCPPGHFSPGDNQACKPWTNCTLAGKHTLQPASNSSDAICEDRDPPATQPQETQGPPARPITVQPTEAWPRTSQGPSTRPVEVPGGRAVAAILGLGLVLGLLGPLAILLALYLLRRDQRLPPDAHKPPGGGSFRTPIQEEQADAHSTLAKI

[4] = biological target: Human CD64 (FcγRI), Sino Biological 10256-H08H (human, UniProt P12314 16-288); assay: SPR Biacore 8K+, ratio of KD values
Human CD64 (FcγRI), Sino Biological 10256-H08H, sequence (P12314 16-288 limits assumed): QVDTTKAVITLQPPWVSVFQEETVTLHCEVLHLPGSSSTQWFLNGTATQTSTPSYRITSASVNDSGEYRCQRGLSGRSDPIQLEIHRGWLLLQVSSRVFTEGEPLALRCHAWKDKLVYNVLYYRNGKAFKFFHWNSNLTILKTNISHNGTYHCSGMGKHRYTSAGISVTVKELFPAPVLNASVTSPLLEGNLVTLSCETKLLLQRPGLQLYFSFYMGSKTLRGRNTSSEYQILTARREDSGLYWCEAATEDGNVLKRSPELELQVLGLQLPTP

[5] = biological target: T4, Human CD16a (176F), Sino Biological 10389-H08H (human, UniProt P08637 17-208); assay: SPR Biacore 8K+, ratio of KD values
T4 construct: also called FcγRIIIa176F
T4 sequence (P08637 17-208 limits assumed): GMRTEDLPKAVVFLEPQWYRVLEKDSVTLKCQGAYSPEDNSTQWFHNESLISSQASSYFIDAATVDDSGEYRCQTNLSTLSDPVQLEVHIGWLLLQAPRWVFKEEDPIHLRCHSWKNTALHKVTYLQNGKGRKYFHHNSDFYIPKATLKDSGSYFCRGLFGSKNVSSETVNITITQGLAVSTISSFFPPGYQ

[6] = biological target: T5, Human CD16a (F176V), Sino Biological 10389-H08H1 (human, UniProt P08637 17-208); assay: SPR Biacore 8K+, ratio of KD values
T5 construct: also called FcγRIIIa176V
T5 sequence (P08637 17-208 F176V limits assumed): as the sequence (P08637 17-208 limits assumed) above, with F160V counted along it

[7] = biological target: T6, Human CD16b (NA2 allotype), Sino Biological 11046-H08H (human, UniProt O75015 17-200); assay: SPR Biacore 8K+, ratio of KD values
T6 construct: also called FcγRIIIb
T6 sequence (O75015 17-200 N65S limits assumed): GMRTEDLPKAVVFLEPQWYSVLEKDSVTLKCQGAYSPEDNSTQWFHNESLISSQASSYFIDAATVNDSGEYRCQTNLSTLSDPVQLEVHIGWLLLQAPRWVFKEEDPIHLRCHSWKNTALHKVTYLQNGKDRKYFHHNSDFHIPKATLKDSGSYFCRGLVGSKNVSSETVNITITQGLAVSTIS

[8] = biological target: T7, Human CD32a (167 His), Sino Biological 10374-H08H1 (human, UniProt P12318 34-218); assay: SPR Biacore 8K+, ratio of KD values
T7 construct: also called FcγRIIa167H
T7 sequence (looked up): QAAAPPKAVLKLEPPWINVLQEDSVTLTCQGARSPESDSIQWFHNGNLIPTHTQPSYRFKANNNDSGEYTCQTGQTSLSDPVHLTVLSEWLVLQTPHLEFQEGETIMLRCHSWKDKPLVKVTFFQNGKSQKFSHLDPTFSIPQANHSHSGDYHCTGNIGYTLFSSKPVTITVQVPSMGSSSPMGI

[9] = biological target: T8, cynomolgus monkey (cy) OX40 protein (Example 5) (cynomolgus monkey); assay: ELISA on coated OX40, ratio of EC50 values
rabbit (rb) OX40 protein [10] = biological target: T9, rabbit (rb) OX40 protein (rabbit); assay: ELISA on coated OX40, ratio of EC50 values
T9 construct: also called Rabbit OX40

[11] = biological target: T10, Human (hu) OX40 protein (Example 5 cross reactivity) (human, UniProt P43489 29-216, limits assumed); assay: SPR Biacore 8K+, single cycle kinetics, MAB10 captured by anti-human Fc, OX40 analyte
T10 construct: whole entry named
T10 sequence: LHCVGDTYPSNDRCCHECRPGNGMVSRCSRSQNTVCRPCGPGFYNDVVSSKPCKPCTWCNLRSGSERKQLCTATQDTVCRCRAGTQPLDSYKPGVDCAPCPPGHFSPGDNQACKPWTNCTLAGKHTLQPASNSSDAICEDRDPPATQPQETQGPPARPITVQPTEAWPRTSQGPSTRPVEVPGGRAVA

[12] = biological target: T8, cynomolgus monkey (cy) OX40 protein …; assay: as above
rabbit (rb) OX40 protein [13] = biological target: T9, rabbit (rb) OX40 protein; assay: as above
cynomolgus OX40-ECD-his [14] = biological target: T2, cynomolgus OX40-ECD-his; assay: SPR, affinity for the extracellular domain (ECD) of cynomolgus monkey OX40
human OX40-CRD-avi-his [15] = biological target: T1, human OX40-CRD-avi-his; assay: SPR, affinity for the extracellular domain (ECD) of human OX40; lower end of the range

fold increase in affinity (KD GBR 830 / KD MAB1) (human OX40-CRD-avi-his [1]): 13.4 fold | fold increase in affinity (KD GBR 830 / KD MAB1) (cynomolgus OX40-ECD-his [2]): 5.5 fold | IC50 (read off the curve) [3]: ~0.02 µg/mL
B1: MAB1 IgG1 (antibody)
heavy: not shown
light: EIVLTQSPATLSLSPGERATLSCRASSSVSYMHWYQQKPGQAPRPWIYATSNRATGIPARFSGSGSGTDYTLTISSLEPEDFAVYYCQQFGAWPWTFGQGTKVEIKRTVAAPSVFIFPPSDEQLKSGTASVVCLLNNFYPREAKVQWKVDNALQSGNSQESVTEQDSKDSTYSLSSTLTLSKADYEKHKVYACEVTHQGLSSPVTKSFNRGEC
notes: Human IgG1, kappa

fold-change of KD relative to MAB1 [4]: 1.6 fold | fold-change of KD relative to MAB1 [5]: 3 fold | fold-change of KD relative to MAB1 [6]: 2.7 fold | fold-change of KD relative to MAB1 [7]: 4.3 fold | fold-change of KD relative to MAB1 [8]: 3.1 fold | fold EC50 against human OX40 [9]: 4 fold | fold EC50 against human OX40 (rabbit (rb) OX40 protein [10]): 8 fold | Kd [11]: 6.7 nM | koff [11]: 0.0021 s⁻¹ | kon [11]: 300000 M⁻¹ s⁻¹ | Kd [12]: 268 nM | koff [12]: 0.052 s⁻¹ | kon [12]: 200000 M⁻¹ s⁻¹ | Kd (rabbit (rb) OX40 protein [13]): 3300 nM | koff (rabbit (rb) OX40 protein [13]): 0.03 s⁻¹ | kon (rabbit (rb) OX40 protein [13]): 9000 M⁻¹ s⁻¹
B2: MAB10 (antibody, human IgG1, kappa)
heavy: QVTLKESGPALVKPTQTLTLTCSFSGFSLSTSGMGVGWIRQPPGKALEWIAHIWWDDDKYYNTALKTRLTISKDTSKNQVVLTMTNMDPVDTATYYCARIDWDGFAYWGQGTLVTVSSASTKGPSVFPLAPSSKSTSGGTAALGCLVKDYFPEPVTVSWNSGALTSGVHTFPAVLQSSGLYSLSSVVTVPSSSLGTQTYICNVNHKPSNTKVDKKVEPKSCDKTHTCPPCPAPELLGGPSVFLFPPKPKDTLYITREPEVTCVVVDVSHEDPEVKFNWYVDGVEVHNAKTKPREEQYNSTYRVVSVLTVLHQDWLNGKEYKCKVSNKALPAPIEKTISKAKGQPREPQVYTLPPSRDELTKNQVSLTCLVKGFYPSDIAVEWESNGQPENNYKTTPPVLDSDGSFFLYSKLTVDKSRWQQGNVFSCSVMHEALHNHYTQKSLSLSPGK
light: B1 light
notes: MAB1 with M252Y, S254T and T256E (EU numbering) in the IgG1 Fc; also called MAB1 Heavy Chain + YTE

Kd (cynomolgus OX40-ECD-his [14]): 5000 nM and 3000 nM | Kd (human OX40-CRD-avi-his [15]): 80 nM
B3: GBR 830 (telazorlimab) (antibody, human IgG1, kappa)
heavy: not shown
light: B1 light with F90W, G91S, A92S, W93N
notes: IgG1; also called Antibody 830; ISB830
